Molecular target: C-CA (W184A/M185A) (HIV-1) (UniProt P04591)
Test: NMR, slow exchange kinetics of binding

Substance: NYAD-1 (peptide)
- Kd: < 10 µM
